Several values for one entry are separate records, joined by “and”; a condition that tells them apart may be missing. Equal entries are not always repeated.

Experimental findings from patent US20210246218A1 (LYVGEN BIOPHARMA SUZHOU, published 2021) are described below.

One experiment addresses T1, human CD137 on cells (human, UniProt Q07011 24-255).
T1 construct: whole, on cells; also called CHO-human CD137; CHO cells over-expressing human CD137
Nature of the experiment: flow cytometry, cellular CD137; human CD137. Here is the method:
(§1) CHO cells over-expressing human or cynomolgus monkey CD137 and CHO parental cells were harvested by centrifugation at 1000 g for 3 minutes. The cells were resuspended in ice cold assay buffer at 2*10\hat{ }6/mL and transferred to 96-well V-bottom plate with 100 μL/well. […] The plate was mixed and incubated in the dark for 2 hours at 4° C. The cells were washed 3 times by centrifugation at 1000 g for 3 min and resuspended in ice cold assay buffer containing goat F(ab′)₂ anti-human IgG-Fc (PE), 100 μL/well. The plate was incubated in the dark for another 1 hour at 4° C. The cells were washed 2 times by centrifugation at 1000 g for 3 min and resuspended in ice cold assay buffer containing 2% PFA. The cells were then subjected to the flow cytometer immediately.
(§2) Mean fluorescence intensity (MFI) was calculated from the total cell population in the FCM experiments. Graphpad 7.0, “[Agonist] vs. response—Variable slope (four parameters)” was used to plot the binding MFI in dose response and to calculate FCM binding EC₅₀ values.
Background: A flow cytometer gives signals particle by particle.

Experiment [1] has as its target T2, recombinant human CD137 receptor protein (human, UniProt Q07011 24-186).
T2 construct: Coated on ELISA plates; also called recombinant human CD137 protein
As to the kind of experiment: ELISA, human CD137 protein coated; average, n=6. Here is the method:
(§3) The human or cynomolgus monkey CD137 receptor protein was diluted in DPBS to 1 μg/mL, and then coated onto an ELISA plate (Corning, Catalog number: 9018, high binding) with a volume of 100 μL (0.1 μg) or 50 μL (0.05 μg) per well, and incubated at 4° C. overnight. The plate was decanted and washed once; assay diluent was added 200 μL/well. After a one-hour incubation at room temperature, the plate was washed with PBST one time. […] The plate was incubated one hour at room temperature and then washed three times with PBST. Goat anti-human IgG-H+L HRP conjugated at 1:100,000 dilution was added to the plate at 100 μL/well. The plate was then incubated one hour at room temperature followed by washing with PBST four times. The TMB substrate solution was added at 100 μL/well. The color was allowed to develop for 15 minutes, and was stopped with 100 μL/well 2N H₂SO₄. Absorbance at 450 nm and 620 nm was determined by a Tecan F200 Pro reader.
(§4) Graphpad 7.0, “[Agonist] vs. response—Variable slope (four parameters)” was used to plot the binding data and calculate binding EC₅₀ values.
(ELISA stands for enzyme-linked immunosorbent assay.)

In experiment [2] the target is T3, human FcγRIIB-Ile232 on CHO-K1 cells (human, UniProt P31994 43-310).
T3 construct: whole, on cells; also called CHO-K1-huFcγRIIB-Ile232; CHO-K1-huFcγRIIB
T3 sequence (looked up): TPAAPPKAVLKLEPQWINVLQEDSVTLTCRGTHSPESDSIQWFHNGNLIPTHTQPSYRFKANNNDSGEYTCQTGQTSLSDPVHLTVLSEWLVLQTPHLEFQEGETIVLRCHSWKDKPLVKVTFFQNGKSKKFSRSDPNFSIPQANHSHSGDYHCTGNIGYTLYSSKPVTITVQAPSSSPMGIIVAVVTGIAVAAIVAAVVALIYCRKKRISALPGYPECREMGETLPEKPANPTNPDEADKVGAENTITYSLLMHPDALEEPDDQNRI
Nature of the experiment: flow cytometry on CHO-huFcγRIIB cells, anti-human Fc F(ab')2. Here is the method:
The plate was mixed and incubated in the dark for 2 hours at 4° C.

The target in experiment [3] is T4, human FcγRI on CHO-K1 cells (human, UniProt P12314 16-374).
T4 construct: whole, on cells; also called CHO-K1-huFcγRI; CHO-huFcγRIA
Nature of the experiment: flow cytometry on CHO-huFcγRIA cells, PE anti-human Fc F(ab')2. The method, then: The plate was mixed and incubated in the dark for 2 hours at 4° C. […] The plate was incubated in the dark for another 1 hour at 4° C. The cells were washed 2 times by centrifugation at 1000 g for 3 min and resuspended in ice cold assay buffer containing 2% PFA.

The target in experiment [4] is T5, recombinant cynomolgus monkey CD137 receptor protein (cynomolgus monkey, UniProt A9YYE7 24-186).
T5 construct: Coated on ELISA plates; also called Cyno CD137
Nature of the experiment: ELISA, recombinant cynomolgus CD137 protein coated, antibody titrated. Here is the method: as §3, §4

Experiment [5] has as its target T6, cynomolgus monkey CD137 on cells (cynomolgus monkey, UniProt A9YYE7 24-254).
T6 construct: whole, on cells; also called CHO-cynomolgus monkey CD137
Nature of the experiment: flow cytometry on CHO-cynomolgus monkey CD137 cells, PE anti-human IgG-Fc. The method, then: as §1, §2

A further experiment addresses T7, Ly050.
T7 chain: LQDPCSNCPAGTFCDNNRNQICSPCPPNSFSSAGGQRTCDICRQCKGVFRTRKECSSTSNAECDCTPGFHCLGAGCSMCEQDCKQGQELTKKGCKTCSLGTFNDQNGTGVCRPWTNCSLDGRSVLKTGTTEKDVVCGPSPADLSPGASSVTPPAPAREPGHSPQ
Nature of the experiment: ELISA, CD137 protein coated, clone 3712 titrated; full sigmoid, plateau about 1.9. The method, then: (§5) For the data shown in FIGS. 16C-D, chimeric CD137 receptor protein samples were diluted in DPBS to 5 μg/mL and then coated onto an ELISA plate (Corning, Catalog number: 9018, high binding) at 50 μL (0.25 μg) per well, and incubated at 4° C. overnight. The plate was decanted and washed once; assay diluent was added at 200 μL/well. After a 1-hour incubation at room temperature, the plate was washed with PBST one time. […] The plate was incubated 1 hour at room temperature and then washed three times with PBST. Goat anti-human IgG-H+L HRP-conjugated at 1:100,000 dilution or goat anti-mouse IgG (H+L) secondary antibody, HRP, 10 at 1:50,000 dilution was added to the plate at 100 μL/well. The plate was incubated 1 hour at room temperature followed by washing with PBST four times. The TMB substrate solution was added 100 μL/well. The color was permitted to develop for 15 minutes and then 100 μL/well 2N H2SO4 was added to terminate the reaction. Absorbance at 450 nm and 620 nm was determined by a Tecan F200 Pro reader.

A further experiment concerns the target T8, Ly049.
T8 chain: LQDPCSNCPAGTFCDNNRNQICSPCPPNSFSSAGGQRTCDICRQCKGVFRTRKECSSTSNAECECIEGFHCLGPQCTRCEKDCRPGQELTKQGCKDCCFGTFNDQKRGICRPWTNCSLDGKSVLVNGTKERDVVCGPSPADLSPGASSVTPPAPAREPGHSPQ
Nature of the experiment: ELISA, CD137 protein coated, clone 3712 titrated; flat curve, fit marked ~ (see non_binding). The method, then: as §5

T1 sequence (Q07011 24-255): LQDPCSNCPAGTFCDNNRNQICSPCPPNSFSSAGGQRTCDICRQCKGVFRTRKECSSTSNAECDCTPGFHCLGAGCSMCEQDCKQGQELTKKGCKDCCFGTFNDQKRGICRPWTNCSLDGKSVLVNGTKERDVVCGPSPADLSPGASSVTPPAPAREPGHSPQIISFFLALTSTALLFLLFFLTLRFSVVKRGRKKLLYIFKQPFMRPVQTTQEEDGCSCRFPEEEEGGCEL
T4 sequence (P12314 16-374): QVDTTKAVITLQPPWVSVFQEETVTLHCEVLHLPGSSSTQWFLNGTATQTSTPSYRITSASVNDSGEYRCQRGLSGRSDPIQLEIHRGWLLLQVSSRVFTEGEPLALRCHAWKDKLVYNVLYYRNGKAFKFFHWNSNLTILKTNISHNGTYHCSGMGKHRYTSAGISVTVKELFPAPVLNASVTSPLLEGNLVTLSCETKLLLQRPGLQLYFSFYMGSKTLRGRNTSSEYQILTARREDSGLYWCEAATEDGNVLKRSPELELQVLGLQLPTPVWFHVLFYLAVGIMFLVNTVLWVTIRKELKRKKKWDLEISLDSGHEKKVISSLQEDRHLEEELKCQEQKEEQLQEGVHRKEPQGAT
T5 sequence (A9YYE7 entry or part of it): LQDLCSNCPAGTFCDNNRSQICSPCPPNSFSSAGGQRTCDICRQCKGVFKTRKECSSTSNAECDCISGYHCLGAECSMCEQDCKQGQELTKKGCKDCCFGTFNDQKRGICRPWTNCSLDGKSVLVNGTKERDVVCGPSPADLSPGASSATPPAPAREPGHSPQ
T6 sequence (A9YYE7 entry or part of it): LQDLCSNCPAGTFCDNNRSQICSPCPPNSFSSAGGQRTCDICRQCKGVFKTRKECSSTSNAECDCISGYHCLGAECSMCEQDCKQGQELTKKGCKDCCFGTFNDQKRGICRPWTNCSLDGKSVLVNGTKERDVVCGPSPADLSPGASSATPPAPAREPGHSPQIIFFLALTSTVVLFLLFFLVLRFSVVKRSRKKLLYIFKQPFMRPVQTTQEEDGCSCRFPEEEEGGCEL

B1: Clone 3712-IgG1v (IgG1v/kappa) (antibody)
heavy: QVQLVQSGAEVKKPGASVKVSCKASGYTFAGFEMHWVRQAPGQGLEWMGAIDPKTGGTDYNQKFKDRVTMTRDTSISTAYMELSRLRSDDTAVYYCARDLGYFDVWGQGTLVTVSSASTKGPSVFPLAPSSKSTSGGTAALGCLVKDYFPEPVTVSWNSGALTSGVHTFPAVLQSSGLYSLSSVVTVPSSSLGTQTYICNVNHKPSNTKVDKKVEPKSCDKTHTCPPCPAPELLGPSVFLFPPKPKDTLMISRTPEVTCVVVDVEHEDPEVKFNWYVDGVEVHNAKTKPREEQYNSTYRVVSVLTVLHQDWLNGKEYKCKVSNKALPAPIEKTISKAKGQPREPQVYTLPPSREEMTKNQVSLTCLVKGFYPSDIAVEWESNGQPENNYKTTPPVLDSDGSFFLYSKLTVDKSRWQQGNVFSCSVMHEALHNHYTQKSLSLSPGK
light: DIQMTQSPSSLSASVGDRVTITCRASQDIRSNLNWYQQKPGGAVKLLIYYTSRLHSGVPSRFSGSGSGTDYTLTISSLQPEDFATYFCQQSEKLPRTFGGGTKVEIRRTVAAPSVFIFPPSDEQLKSGTASVVCLLNNFYPREAKVQWKVDNALQSGNSQESVTEQDSKDSTYSLSSTLTLSKADYEKHKVYACEVTHQGLSSPVTKSFNRGEC
notes: copies: 2 + 2
Broadly, the EC50 is the concentration giving half of the maximal effect. One may read the EC50 (read off the curve) as the midpoint of the concentration-response curve. With B1, the EC50 with human CD137 on cells was ~0.3 nM; in experiment [1] it was 0.37 nM and 0.0529 µg/mL; with Ly050, 0.0722 µg/mL; with Ly049, ~0.903 µg/mL. In addition, the binding result in experiment [2] is given as “binds”; in experiment [3] it was “no binding (tested: 10 µg/mL)”. Besides, the concentration for a half-maximal effect (EC50 (read off the curve)) in experiment [4] was ~0.05 µg/mL; in experiment [5], ~0.03 µg/mL.
